Test results reported in US20260167684A1 (MERIDA BIOSCIENCES, published 2026).
Positions count from the first letter of the chain named. In names and notes the source's numbering stands.

T1: FcγRIIB expressed on cells (CHO-FcγRIIB+ cells; primary human cells that express FcγRIIB) (human, UniProt P31994 43-310)
T1 construct: whole, on cells; also called FcγRIIB-expressing CHO cells
T1 sequence (looked up): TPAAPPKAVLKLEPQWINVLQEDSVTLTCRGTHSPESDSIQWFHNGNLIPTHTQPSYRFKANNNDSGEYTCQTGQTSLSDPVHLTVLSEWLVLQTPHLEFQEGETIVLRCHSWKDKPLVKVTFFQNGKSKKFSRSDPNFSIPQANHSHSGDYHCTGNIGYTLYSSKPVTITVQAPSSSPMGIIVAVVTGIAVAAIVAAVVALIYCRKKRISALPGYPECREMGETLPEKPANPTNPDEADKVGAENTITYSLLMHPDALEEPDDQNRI

T2: FcγRIIB (human, UniProt P31994 46-217, limits assumed)
T2 construct: Soluble protein used in SPR
T2 sequence (looked up): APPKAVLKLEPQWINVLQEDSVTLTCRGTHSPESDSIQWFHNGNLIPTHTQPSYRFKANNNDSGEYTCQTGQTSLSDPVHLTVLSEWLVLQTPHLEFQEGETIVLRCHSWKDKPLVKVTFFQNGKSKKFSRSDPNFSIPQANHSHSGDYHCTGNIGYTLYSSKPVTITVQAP

T3: FcγRIIA167R (UniProt P12318 36-218)
T3 construct: Soluble protein used in SPR
T3 sequence (looked up): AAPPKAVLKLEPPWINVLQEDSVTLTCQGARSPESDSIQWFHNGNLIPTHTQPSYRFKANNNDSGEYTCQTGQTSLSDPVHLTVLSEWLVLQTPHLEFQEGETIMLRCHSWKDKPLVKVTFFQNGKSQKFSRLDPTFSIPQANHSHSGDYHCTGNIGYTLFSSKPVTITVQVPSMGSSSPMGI

T4: FcγRIIA167H (UniProt P12318 36-218)
T4 construct: Soluble protein used in SPR
T4 sequence (looked up): T3 sequence (looked up) with R132H

B1: Variant E3 (Fc fusion)
chain 1: MGCSSPPCECHQEEDFRVTCKDIQRIPSLPPSTQTLKLIETHLRTIPSHAFSNLPNISRIYVSIDVTLQQLESHSFYNLSKVTHIEIRNTPNLTYIDPDALKELPLLKFLGIFNTGLKMFPPLTKVYSTDIFFILEITDNPYMTSIPRNAFQGLCNETLTLKLYNNGFTSVQGYAFNGTKLDAVYLNKNKYLTVIDKDAFGGVYSGPSLLDVSQTSVTALPSKGLEHLKELRARNTWTLDKTHTCPPCPAPELLGGDSVFLFPPKPKDTLMISRTPEVTCVVVDVSHEDPEVKFNWYVDGVEVHNAKTKPREEQYNSTYRVVSVLTVLHQDWLNGKEYKCKVSNKALPAPIEKTISKAKGQPREPQVYTLPPCRDELTKNQVSLWCLVKGFYPSDIAVEWESNGQPENNYKTTPPVLDSDGSFFLYSKLTVDKSRWQQGNVFSCSVLHEALHSHYTQKSLSLSPGK
chain 2: DKTHTCPPCPAPELLGGDSVFLFPPKPKDTLMISRTPEVTCVVVDVSHEDPEVKFNWYVDGVEVHNAKTKPREEQYNSTYRVVSVLTVLHQDWLNGKEYKCKVSNKALPAPIEKTISKAKGQPREPQVCTLPPSRDELTKNQVSLSCAVKGFYPSDIAVEWESNGQPENNYKTTPPVLDSDGSFFLVSKLTVDKSRWQQGNVFSCSVLHEALHSHYTQKSLSLSPGK
notes: Knob-in-hole heterodimer; also called TSHR260 2P2R huIgG1 Fc P238D/LS; TSHR260 2P2R huIgG1 with P238D and LS
B2: Variant G13 (Fc fusion)
chain 1: B1 chain 1 with G256D, D289E, P290G, A349R, D375E, L377M, L447M, S453N
chain 2: B1 chain 2 with G17D, D50E, P51G, A110R, D136E, L138M, L208M, S214N
notes: Knob-in-hole heterodimer; also called TSHR260 2P2R huIgG1 Fc G237D/P238D/D270E/P271G/A330R
B3: Variant G4 (Fc fusion)
chain 1: B1 chain 1 with E252D, G256D, H287D, P290G, A349R, L447M, S453N
chain 2: B1 chain 2 with E13D, G17D, H48D, P51G, A110R, L208M, S214N
notes: Knob-in-hole heterodimer; also called TSHR260 2P2R huIgG1 Fc E233D/G237D/P238D/H268D/P271G/A330R
B4: Variant G14 (Fc fusion)
chain 1: B1 chain 1 with D257P, S258D, H287D, L347W, L447M, S453N
chain 2: B1 chain 2 with D18P, S19D, H48D, L108W, L208M, S214N
notes: Knob-in-hole heterodimer; also called TSHR260 2P2R huIgG1 Fc S239D/H268D/L328W
B5: Variant G6 (Fc fusion)
chain 1: B1 chain 1 with L253D, G255N, D257P, S286E, L447M, S453N
chain 2: B1 chain 2 with L14D, G16N, D18P, S47E, L208M, S214N
notes: Knob-in-hole heterodimer; also called TSHR260 2P2R huIgG1 Fc L234D/G236N/S267E
B6: Variant G12 (Fc fusion)
chain 1: B1 chain 1 with G256D, P290G, A349R, D375E, L377M, L447M, S453N
chain 2: B1 chain 2 with G17D, P51G, A110R, D136E, L138M, L208M, S214N
notes: Knob-in-hole heterodimer; also called TSHR260 2P2R huIgG1 Fc G237D/P238D/P271G/A330R
B7: Variant G2 (Fc fusion)
chain 1: MGCSSPPCECHQEEDFRVTCKDIQRIPSLPPSTQTLKLIETHLRTIPSHAFSNLPNISRIYVSIDVTLQQLESHSFYNLSKVTHIEIRNTPNLTYIDPDALKELPLLKFLGIFNTGLKMFPPLTKVYSTDIFFILEITDNPYMTSIPRNAFQGLCNETLTLKLYNNGFTSVQGYAFNGTKLDAVYLNKNKYLTVIDKDAFGGVYSGPSLLDVSQTSVTALPSKGLEHLKELRARNTWTLDKTHTCPPCPAPVDFRDPLVFLFPPKPKDTLMISRTPEVTCVVVDVDPEDPEVKFNWYVDGVEVHNAKTKPQEEQYNGAYRVVSVLTVLHQDWLNGKEYKCKVSNKLAPHPIIKTISKAKGQPREPQVYTLPPCRDELTKNQVSLWCLVKGFYPSDIAVEWESNGQPENNYKTTPPVLDSDGSFFLYSKLTVDKSRWQQGNVFSCSVMHEALHNHYTQKSLSLSPGK
chain 2: DKTHTCPPCPAPVDFRDPLVFLFPPKPKDTLMISRTPEVTCVVVDVDPEDPEVKFNWYVDGVEVHNAKTKPQEEQYNGAYRVVSVLTVLHQDWLNGKEYKCKVSNKLAPHPIIKTISKAKGQPREPQVCTLPPSRDELTKNQVSLSCAVKGFYPSDIAVEWESNGQPENNYKTTPPVLDSDGSFFLVSKLTVDKSRWQQGNVFSCSVMHEALHNHYTQKSLSLSPGK
notes: Knob-in-hole heterodimer; also called TSHR260 2P2R huIgG1 Fc E233V/L234D/L235F/G236R/G237D/S239L/S267D/R292Q/H268P/S298G/T299A/A327L/L328A/A330H/E333I
B8: Variant G1 (Fc fusion)
chain 1: B7 chain 1 with Q311R
chain 2: B7 chain 2 with Q72R
notes: Knob-in-hole heterodimer; also called TSHR260 2P2R huIgG1 Fc E233V/L234D/L235F/G236R/G237D/S239L/S267D/H268P/S298G/T299A/A327L/L328A/A330H/E333I
B9: Variant G3 (Fc fusion)
chain 1: B7 chain 1 with D286S
chain 2: B7 chain 2 with D47S
notes: Knob-in-hole heterodimer; also called TSHR260 2P2R huIgG1 Fc E233V/L234D/L235F/G236R/G237D/S239L/H268P/R292Q/S298G/T299A/A327L/L328A/A330H/E333I

Experiments:
[1] = target: T1, FcγRIIB expressed on cells …; assay: flow cytometry, CHO cells expressing FcγRIIB, molecule pre-complexed with M22-PE at 1:1 or 4:1 molar ratio, with and without anti-FcγRIIB antibody 2B6
Method: Cells expressing FcγRIIB are seeded in a 96-well plate and stained with Live/Dead Violet Fixable Dye. Next, the pre-complexed molecule and autoantibody are incubated with the cells at various concentrations at either 4C (to assess binding) or 37C (to assess uptake). After incubation, cells are washed with PBS (binding) or acidic media to remove surface-bound complexes (uptake). Cellular fluorescence is determined by flow cytometry.

human C1q = target: T5, human C1q (human, UniProt P02745 23-245; P02746 28-253; P02747 29-245); assay: ELISA (n=2), serial dilutions of the molecule coated on the plate, human C1q at 5 µg/mL, anti-C1q HRP detection
T5 construct: also called complement (C1q)
Method: An IgG4 was used as a negative control.
Varying dilutions of each exemplary molecule or one of the controls were tested for binding to C1q by ELISA where serial dilutions of molecules or controls were coated on a plate (at 0.01 μg/mL, 0.1 μg/mL, 1.0 μg/mL, 10.0 μg/mL, 100.0 μg/mL, and 1000 μg/mL) overnight at 4 C. After blocking and subsequent wash steps, human C1q at 5 μg/mL was added to the ELISA plate for 1 hour at room temperature. The plate was washed and a sheep polyclonal anti-C1q HRP antibody at 1:200 dilution was added and incubated for an additional 1 hour. Development of the ELISA plate was carried out by addition of TMB. Color development was then stopped with addition of 3N HCl. Plate absorbance was read at 450 nm using a plate ready.

FcγRIIB [2] = target: T2, FcγRIIB; assay: SPR, molecule captured on the sensor chip, FcγRIIB as analyte; steady state plot of response against analyte concentration
FcγRIIB [3] = target: T2, FcγRIIB; assay: SPR; molecule captured on CM5 chip, FcγR as analyte; steady-state fit
Method: (§1) Binding assays using SPR were performed to determine the binding affinity of the exemplary molecules. Molecules were captured on a CM5 SPR chip. Increasing concentrations of FcγR analyte (FcγRIIA167H, FcγRIIA167R or FcγRIIB) were subsequently injected over the captured molecules and a single dissociation performed using single cycle kinetics. The data was then analyzed using steady state analysis which is suitable for low affinity interactions. In particular, a plot of response at equilibrium against the molecule concentration was generated.

FcγRIIA167R [4] = target: T3, FcγRIIA167R; assay: as above
Method: as §1

FcγRIIA167H [5] = target: T4, FcγRIIA167H; assay: as above
Method: as §1

FcγRIIA167H [6] = target: T4, FcγRIIA167H; assay: SPR, molecule captured on the sensor chip, FcγRIIA167H as analyte
Method: as §1

FcγRIIA167R [7] = target: T3, FcγRIIA167R; assay: SPR, molecule captured on the sensor chip, FcγRIIA167R as analyte
Method: as §1

T5 sequence (P02745 23-245 limits assumed, chain 1 of 3): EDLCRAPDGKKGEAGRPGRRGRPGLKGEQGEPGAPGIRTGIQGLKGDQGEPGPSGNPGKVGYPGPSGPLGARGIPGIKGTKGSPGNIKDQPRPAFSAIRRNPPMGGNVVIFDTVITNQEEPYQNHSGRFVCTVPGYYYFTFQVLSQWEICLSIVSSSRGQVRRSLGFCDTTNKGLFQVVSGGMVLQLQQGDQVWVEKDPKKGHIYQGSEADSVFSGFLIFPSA
T5 sequence (P02746 28-253 limits assumed, chain 2 of 3): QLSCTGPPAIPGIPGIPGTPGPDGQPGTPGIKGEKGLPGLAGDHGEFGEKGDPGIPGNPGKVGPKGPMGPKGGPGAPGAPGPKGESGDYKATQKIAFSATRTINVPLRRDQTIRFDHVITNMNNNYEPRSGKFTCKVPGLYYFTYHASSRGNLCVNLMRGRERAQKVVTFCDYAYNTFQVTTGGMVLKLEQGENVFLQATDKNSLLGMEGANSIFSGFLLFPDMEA
T5 sequence (P02747 29-245 limits assumed, chain 3 of 3): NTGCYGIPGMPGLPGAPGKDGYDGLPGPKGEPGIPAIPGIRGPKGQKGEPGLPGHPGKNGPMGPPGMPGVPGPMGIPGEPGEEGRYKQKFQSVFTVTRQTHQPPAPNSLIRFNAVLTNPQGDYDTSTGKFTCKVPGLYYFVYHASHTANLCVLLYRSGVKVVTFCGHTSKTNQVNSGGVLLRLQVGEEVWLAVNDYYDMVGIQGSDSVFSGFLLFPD

Binder	Kd (FcγRIIB [3])	Kd (FcγRIIA167R [4])	binding result (FcγRIIA167H [6])	further results
B1				binding result [1]: binds; binding result (human C1q): no binding (tested: 100 µg/mL); binding result (FcγRIIB [2]): binds
B2	127 nM	1790 nM		
B3	55.6 nM	836 nM		
B4	30.9 nM	4.32 nM		Kd (FcγRIIA167H [5]): 114 nM
B5	335 nM		no binding (tested: about 2.4e-6 M)	
B6	22.3 nM	369 nM		Kd (FcγRIIA167H [5]): 3810 nM
B7	2610 nM		no binding (tested: about 2.4e-6 M)	
B8	2620 nM		no binding (tested: about 2.4e-6 M)	
B9	3650 nM		no binding (tested: about 2.4e-6 M)	binding result (FcγRIIA167R [7]): no binding (tested: about 2.4e-6 M)
